The results in this text go back to patent US20060223116.

Data set [1] concerns T1, truncated GST-fusion T-bet protein, C-terminal fragment.
T1 sequence (Q9UL17 whole entry, species assumed, looked up): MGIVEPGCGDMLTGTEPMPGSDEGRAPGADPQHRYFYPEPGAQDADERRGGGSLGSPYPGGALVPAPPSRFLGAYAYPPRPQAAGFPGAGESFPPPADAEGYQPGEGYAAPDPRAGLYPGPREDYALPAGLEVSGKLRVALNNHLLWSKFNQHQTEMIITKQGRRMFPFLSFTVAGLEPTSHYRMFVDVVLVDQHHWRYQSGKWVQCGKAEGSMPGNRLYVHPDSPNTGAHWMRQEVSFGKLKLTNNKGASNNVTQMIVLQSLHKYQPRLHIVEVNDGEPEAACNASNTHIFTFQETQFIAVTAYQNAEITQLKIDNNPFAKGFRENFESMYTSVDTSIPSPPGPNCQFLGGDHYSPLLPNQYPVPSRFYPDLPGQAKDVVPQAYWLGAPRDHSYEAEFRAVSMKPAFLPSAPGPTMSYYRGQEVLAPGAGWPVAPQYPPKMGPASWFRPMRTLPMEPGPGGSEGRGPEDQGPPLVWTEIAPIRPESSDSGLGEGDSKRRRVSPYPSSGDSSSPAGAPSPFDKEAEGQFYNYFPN

Data set [2] concerns T2, truncated GST-fusion T-bet protein, N-terminal fragment.
T2 sequence (Q9UL17 whole entry, species assumed, looked up): T1 sequence (Q9UL17 whole entry, species assumed, looked up)

B1: ITK-FLAG (full length IL-2 inducible T cell tyrosine kinase, FLAG-tagged) (enzyme, UniProt Q08881 1-620, looked up, species assumed)
chain: MNNFILLEEQLIKKSQQKRRTSPSNFKVRFFVLTKASLAYFEDRHGKKRTLKGSIELSRIKCVEIVKSDISIPCHYKYPFQVVHDNYLLYVFAPDRESRQRWVLALKEETRNNNSLVPKYHPNFWMDGKWRCCSQLEKLATGCAQYDPTKNASKKPLPPTPEDNRRPLWEPEETVVIALYDYQTNDPQELALRRNEEYCLLDSSEIHWWRVQDRNGHEGYVPSSYLVEKSPNNLETYEWYNKSISRDKAEKLLLDTGKEGAFMVRDSRTAGTYTVSVFTKAVVSENNPCIKHYHIKETNDNPKRYYVAEKYVFDSIPLLINYHQHNGGGLVTRLRYPVCFGRQKAPVTAGLRYGKWVIDPSELTFVQEIGSGQFGLVHLGYWLNKDKVAIKTIREGAMSEEDFIEEAEVMMKLSHPKLVQLYGVCLEQAPICLVFEFMEHGCLSDYLRTQRGLFAAETLLGMCLDVCEGMAYLEEACVIHRDLAARNCLVGENQVIKVSDFGMTRFVLDDQYTSSTGTKFPVKWASPEVFSFSRYSSKSDVWSFGVLMWEVFSEGKIPYENRSNSEVVEDISTGFRLYKPRLASTHVYQIMNHCWKERPEDRPAFSRLLRQLAEIAESGL
modifications: full-length FLAG tag
B1: the “in vitro kinase assay (32P-ATP, autoradiography)” value in data set [1] is “both the N and C terminal fragments but not the DNA binding domain, could be phosphorylated by the Tec kinases, ITK and RLK”; in data set [2], “both the N and C terminal fragments but not the DNA binding domain, could be phosphorylated by the Tec kinases, ITK and RLK”.
